Patent US20100184658A1 (published 2010)

Legend:
Assay in all cases: cell-based or functional assay
[1] = biological target: T1, PRKD2 (PKD2) Protein kinase D2 (UniProt Q9BZL6 1-878, limits assumed)
T1 sequence (looked up): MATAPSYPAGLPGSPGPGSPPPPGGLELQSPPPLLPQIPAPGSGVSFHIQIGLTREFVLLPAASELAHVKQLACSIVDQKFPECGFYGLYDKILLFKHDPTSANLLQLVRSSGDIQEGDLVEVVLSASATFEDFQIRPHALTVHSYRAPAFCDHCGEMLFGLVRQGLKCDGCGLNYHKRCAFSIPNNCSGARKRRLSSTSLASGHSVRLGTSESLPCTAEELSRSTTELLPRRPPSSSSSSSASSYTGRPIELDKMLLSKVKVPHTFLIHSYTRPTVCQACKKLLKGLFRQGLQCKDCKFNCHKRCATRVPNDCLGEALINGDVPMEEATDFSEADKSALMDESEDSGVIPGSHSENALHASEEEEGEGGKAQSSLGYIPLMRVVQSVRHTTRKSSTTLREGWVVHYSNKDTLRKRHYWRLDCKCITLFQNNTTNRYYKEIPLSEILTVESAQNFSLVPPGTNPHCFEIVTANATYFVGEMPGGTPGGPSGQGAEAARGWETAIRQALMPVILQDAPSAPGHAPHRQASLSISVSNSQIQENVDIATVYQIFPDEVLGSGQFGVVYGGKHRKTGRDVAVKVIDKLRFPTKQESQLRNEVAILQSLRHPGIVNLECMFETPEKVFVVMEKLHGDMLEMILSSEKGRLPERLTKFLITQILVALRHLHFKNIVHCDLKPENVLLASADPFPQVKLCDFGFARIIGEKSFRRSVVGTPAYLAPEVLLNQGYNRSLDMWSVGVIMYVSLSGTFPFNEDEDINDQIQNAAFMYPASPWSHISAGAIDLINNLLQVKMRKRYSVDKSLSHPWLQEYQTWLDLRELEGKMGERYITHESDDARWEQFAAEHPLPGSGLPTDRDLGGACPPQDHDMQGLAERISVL

[2] = biological target: T2, PRKG2 (PKG2) (UniProt Q13237 1-762, limits assumed)
T2 sequence (looked up): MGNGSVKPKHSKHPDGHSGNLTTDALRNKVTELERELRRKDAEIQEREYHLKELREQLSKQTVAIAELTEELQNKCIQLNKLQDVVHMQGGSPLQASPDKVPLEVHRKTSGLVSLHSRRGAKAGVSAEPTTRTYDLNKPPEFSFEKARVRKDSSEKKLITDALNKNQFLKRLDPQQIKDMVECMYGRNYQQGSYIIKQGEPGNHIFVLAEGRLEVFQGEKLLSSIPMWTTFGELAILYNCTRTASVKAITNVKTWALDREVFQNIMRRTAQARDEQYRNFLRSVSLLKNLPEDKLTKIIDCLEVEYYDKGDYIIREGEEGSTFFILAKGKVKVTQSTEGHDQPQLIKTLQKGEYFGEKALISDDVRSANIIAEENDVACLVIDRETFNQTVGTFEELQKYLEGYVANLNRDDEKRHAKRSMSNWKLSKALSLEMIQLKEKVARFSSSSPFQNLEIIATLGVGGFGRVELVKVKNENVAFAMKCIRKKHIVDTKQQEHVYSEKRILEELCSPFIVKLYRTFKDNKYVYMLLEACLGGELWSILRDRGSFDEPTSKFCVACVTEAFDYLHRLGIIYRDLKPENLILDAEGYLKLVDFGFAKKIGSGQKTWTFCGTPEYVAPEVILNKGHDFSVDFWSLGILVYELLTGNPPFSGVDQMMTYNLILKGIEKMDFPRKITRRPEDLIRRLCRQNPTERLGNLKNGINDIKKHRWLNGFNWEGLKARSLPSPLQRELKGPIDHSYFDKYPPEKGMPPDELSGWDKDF

[3] = biological target: T3, IRAK4 (interleukin-1 receptor-associated kinase 4) (UniProt Q9NWZ3 1-460, limits assumed)
T3 sequence (looked up): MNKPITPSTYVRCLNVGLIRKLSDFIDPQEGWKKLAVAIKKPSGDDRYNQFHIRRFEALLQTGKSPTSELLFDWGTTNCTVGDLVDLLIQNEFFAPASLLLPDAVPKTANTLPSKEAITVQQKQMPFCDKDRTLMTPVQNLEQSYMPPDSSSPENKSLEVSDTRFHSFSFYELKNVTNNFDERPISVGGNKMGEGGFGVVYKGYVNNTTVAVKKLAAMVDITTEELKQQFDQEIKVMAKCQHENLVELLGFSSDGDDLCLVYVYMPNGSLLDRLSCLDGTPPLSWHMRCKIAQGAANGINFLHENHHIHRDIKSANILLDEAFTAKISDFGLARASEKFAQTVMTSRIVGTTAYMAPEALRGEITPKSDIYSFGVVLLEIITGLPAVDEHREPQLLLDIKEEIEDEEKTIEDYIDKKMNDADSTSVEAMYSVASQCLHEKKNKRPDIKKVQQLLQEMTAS

[4] = biological target: CAMK2B (CaMKII beta) (UniProt Q13554 1-666, limits assumed)
Note: test concentration or dose not given here.

Sequence of CAMK2B (CaMKII beta) (Q13554 whole entry): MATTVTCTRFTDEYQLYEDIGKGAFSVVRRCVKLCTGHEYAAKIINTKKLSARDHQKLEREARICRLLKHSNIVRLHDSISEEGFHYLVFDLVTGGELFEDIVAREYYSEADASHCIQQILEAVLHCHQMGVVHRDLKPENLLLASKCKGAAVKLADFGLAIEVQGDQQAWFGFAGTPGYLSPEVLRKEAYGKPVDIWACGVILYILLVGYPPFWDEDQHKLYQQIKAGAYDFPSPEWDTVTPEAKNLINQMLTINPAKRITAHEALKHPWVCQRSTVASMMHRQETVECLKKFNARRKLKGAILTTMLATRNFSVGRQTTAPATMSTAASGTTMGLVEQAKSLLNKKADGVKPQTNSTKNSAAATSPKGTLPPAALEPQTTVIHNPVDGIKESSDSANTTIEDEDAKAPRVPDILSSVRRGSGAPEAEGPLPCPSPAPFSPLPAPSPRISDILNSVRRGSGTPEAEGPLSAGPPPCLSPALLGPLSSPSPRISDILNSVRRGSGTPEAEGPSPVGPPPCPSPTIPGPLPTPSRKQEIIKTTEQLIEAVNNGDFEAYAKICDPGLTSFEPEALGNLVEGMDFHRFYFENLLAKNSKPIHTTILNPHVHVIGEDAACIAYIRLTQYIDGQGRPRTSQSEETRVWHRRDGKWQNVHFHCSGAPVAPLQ

Question: SGRPPMIVWFNRPFLIAVSHTHGQTILFMAKVINPVGA [D3 peptide] was tested. Which “% Inhibition mean” value [1] did it give?
Answer: The value was 92.5%.

Question: What about the “% Inhibition mean” value [2] of the same binder?
Answer: Its value is 101%.

Question: What about the “% Inhibition mean” value [3] of the same binder?
Answer: The value was 96%.

Question: And the “% Inhibition mean” value [4]?
Answer: The value was 90.3%.
